Results taken from patent US20190336574A1 (TRUSTEES OF PRINCETON UNIVERSITY, published 2019).

Experiments:
[1] = biological target: T1, HA-SND1, full-length human, wild type (human, UniProt Q7KZF4 1-910); assay: co-IP from HEK293T lysates (anti-HA per text, anti-Myc per legend), western blot
T1 construct: Full-length, HA-tagged; Expressed in HEK293T cells, tested in lysate; also called HA-tagged SND1; WT HA-SND1
T1 sequence: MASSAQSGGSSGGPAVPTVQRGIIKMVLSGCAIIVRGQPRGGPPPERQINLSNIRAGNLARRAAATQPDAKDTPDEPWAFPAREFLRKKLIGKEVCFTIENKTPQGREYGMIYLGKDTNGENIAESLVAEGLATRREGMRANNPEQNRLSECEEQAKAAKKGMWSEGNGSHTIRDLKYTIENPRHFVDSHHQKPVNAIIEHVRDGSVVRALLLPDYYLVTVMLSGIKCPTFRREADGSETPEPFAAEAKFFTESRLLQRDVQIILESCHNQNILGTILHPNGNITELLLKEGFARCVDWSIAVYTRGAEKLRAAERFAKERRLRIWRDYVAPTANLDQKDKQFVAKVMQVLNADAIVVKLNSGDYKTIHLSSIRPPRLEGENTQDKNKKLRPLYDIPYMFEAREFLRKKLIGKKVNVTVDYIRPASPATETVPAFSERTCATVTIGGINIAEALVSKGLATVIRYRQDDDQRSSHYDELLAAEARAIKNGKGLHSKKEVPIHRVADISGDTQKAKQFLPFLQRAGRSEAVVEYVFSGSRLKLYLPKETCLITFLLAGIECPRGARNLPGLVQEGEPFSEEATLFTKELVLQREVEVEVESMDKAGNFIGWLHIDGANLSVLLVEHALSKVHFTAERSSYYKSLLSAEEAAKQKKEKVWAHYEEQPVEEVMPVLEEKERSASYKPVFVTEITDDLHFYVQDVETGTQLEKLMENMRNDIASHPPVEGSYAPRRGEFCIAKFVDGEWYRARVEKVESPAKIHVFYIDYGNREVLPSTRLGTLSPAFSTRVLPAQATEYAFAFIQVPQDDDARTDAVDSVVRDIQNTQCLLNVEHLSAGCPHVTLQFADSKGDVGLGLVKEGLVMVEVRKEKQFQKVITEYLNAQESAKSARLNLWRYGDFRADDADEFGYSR
Procedure: Immunoprecipitation and western blot: For in vivo immunoprecipitation (IP) experiments, cultured cells were washed in cold PBS and lysed in lysis buffer (20 mM Tris pH 7.4, 0.15 M NaCl, 1 mM EDTA, 1 mM EGTA, 1% Tx-100, 0.0025 M Na2P2O7, 1 mM β-glycerolphosphate, 1 mM Na3VO4, and 1 mM NaF) with an EDTA-free protease inhibitor mixture (Roche Applied Science) and PMSF. Cell lysates were then incubated on ice for 10 min, centrifuged, and precleared by incubating with protein A/G beads (Santa Cruz Biotechnology) for 1 h at 4° C. For IP bead preparation, 30 μl of protein A/G beads were incubated with 5 μg of antibodies for 2 h at 4° C. IPs were carried out for overnight at 4° C., and beads were centrifuged, washed and subsequently boiled for 5 min in SDS protein loading buffer to elute bound protein. IP lysates were subjected to western blotting with indicated antibodies.
It was further examined how the MTDH and SND1 mutations identified at this interface affected the interaction of full-length proteins in mammalian cells. Full-length HA-tagged SND1 was co-expressed with full-length Myc-tagged wild-type (WT) or mutant MTDH in HEK293T cells and cell lysates were subjected to anti-HA immunoprecipitation for SND1 pull down. Consistent with in vitro observations (FIG. 22A), WT MTDH, but not mutants W394A, W394D, or W401A, was pulled down along with HA-SND1 (FIG. 22C, in red). […] Likewise, the SND1 mutations that affected MTDH-binding in vitro also affected the binding of full-length proteins in vivo to similar levels.

[2] = biological target: T2, murine SND1, wild type (mouse, UniProt Q78PY7 1-910); assay: co-IP (anti-MTDH) from reconstituted PyMT;Mtdh-/- tumor cells, western blot
T2 construct: Endogenous protein of murine PyMT mammary tumor cells; also called SND1 (in PyMT tumor cells); WT shRNA-resistant murine SND1
T2 sequence (looked up): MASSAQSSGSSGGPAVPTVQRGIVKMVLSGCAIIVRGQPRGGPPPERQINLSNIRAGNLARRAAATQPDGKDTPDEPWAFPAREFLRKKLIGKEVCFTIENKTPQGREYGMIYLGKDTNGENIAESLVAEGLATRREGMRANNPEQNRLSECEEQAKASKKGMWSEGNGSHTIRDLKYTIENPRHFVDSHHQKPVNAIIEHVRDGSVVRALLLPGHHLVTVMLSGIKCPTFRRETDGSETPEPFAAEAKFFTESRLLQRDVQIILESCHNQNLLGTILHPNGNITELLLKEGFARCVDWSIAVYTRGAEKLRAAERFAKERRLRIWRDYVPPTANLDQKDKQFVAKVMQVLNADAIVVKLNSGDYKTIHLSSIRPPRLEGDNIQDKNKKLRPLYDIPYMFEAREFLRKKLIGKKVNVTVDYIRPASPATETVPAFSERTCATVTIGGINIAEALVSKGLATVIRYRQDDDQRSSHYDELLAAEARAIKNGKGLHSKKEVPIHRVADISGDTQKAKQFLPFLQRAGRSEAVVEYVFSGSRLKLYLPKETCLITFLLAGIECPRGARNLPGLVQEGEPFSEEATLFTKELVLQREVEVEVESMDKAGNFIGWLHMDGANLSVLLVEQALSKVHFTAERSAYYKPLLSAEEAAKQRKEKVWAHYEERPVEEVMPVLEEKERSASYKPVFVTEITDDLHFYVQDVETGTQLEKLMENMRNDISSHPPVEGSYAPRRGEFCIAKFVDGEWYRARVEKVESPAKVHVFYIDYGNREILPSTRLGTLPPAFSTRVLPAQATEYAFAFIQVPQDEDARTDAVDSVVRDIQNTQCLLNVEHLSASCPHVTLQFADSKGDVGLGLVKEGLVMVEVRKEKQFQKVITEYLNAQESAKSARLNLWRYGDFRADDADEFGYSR
Description: IP lysates were subjected to western blotting with indicated antibodies.
In particular, genetic deletion of Mtdh in mice impairs the tumor-initiating potential of mammary epithelial cells transformed by diverse oncogenes (PyMT, Wnt, ErbB2) or carcinogen stimuli, and this defect can be readily rescued by reintroducing MTDH into Mtdh-knockout (Mtdh−/−) tumor cells by lentiviral transduction. To test whether interacting with SND1 is important for the tumor-initiating effect of MTDH, the murine form of WT or mutant MTDH (W394A or W401A, corresponding mutations in mouse are W391A, W398A) was stably expressed in mammary tumor cells from PyMT;Mtdh−/− mice. […] To examine how MTDH mutations affect tumor formation in vivo, PyMT;Mtdh−/− tumor cells were orthotopically transplanted into the mammary fat pads of WT recipient mice. […] Furthermore, the size of tumors formed by PyMT;Mtdh−/− tumor cells reconstituted with mutant MTDH was much smaller than that with WT MTDH (FIG. 23D-E).

B1: Myc-MTDH D389R, full-length human (other)
chain: MAARSWQDELAQQAEEGSARLREMLSVGLGFLRTELGLDLGLEPKRYPGWVILVGTGALGLLLLFLLGYGWAAACAGSRKKRRSPPRKREEAAAVPAAAPDDLALLKNLRSEEQKKKNRKKLSEKPKPNGRTVEVAEGEAVRTPQSVTAKQPPEIDKKNEKSKKNKKKSKSDAKAVQNSSRHDGKEVDEGAWETKISHREKRQQRKRDKVLTDSGSLDSTIPGIENTITVTTEQLTTASFPVGSKKNKGDSHLNVQVSNFKSGKGDSTLQVSSGLNENLTVNGGGWNEKSVKLSSQISAGEEKWNSVSPASAGKRKAEPSAWSQDTGDANTNGKDWGRSWSDRSIFSGIGSTAEPVSQSTTSDYQWDVSRNQPYIDDEWSGLNGLSSARPNSDWNAPAEEWGNWVDEERASLLKSQEPIPDDQKVSDDDKEKGEGALPTGKSKKKKKKKKKQGEDNSTAQDTEELEKEIREDLPVNTSKTRPKQEKAFSLKTISTSDPAEVLVKNSQPIKTLPPATSTEPSVILSKSDSDKSSSQVPPILQETDKSKSNTKQNSVPPSQTKSETSWESPKQIKKKKKARRET
notes: Full-length, Myc-tagged; also called SPM11
B1: binds [1].

B2: Myc-MTDH W394A, full-length human (other)
chain: MAARSWQDELAQQAEEGSARLREMLSVGLGFLRTELGLDLGLEPKRYPGWVILVGTGALGLLLLFLLGYGWAAACAGSRKKRRSPPRKREEAAAVPAAAPDDLALLKNLRSEEQKKKNRKKLSEKPKPNGRTVEVAEGEAVRTPQSVTAKQPPEIDKKNEKSKKNKKKSKSDAKAVQNSSRHDGKEVDEGAWETKISHREKRQQRKRDKVLTDSGSLDSTIPGIENTITVTTEQLTTASFPVGSKKNKGDSHLNVQVSNFKSGKGDSTLQVSSGLNENLTVNGGGWNEKSVKLSSQISAGEEKWNSVSPASAGKRKAEPSAWSQDTGDANTNGKDWGRSWSDRSIFSGIGSTAEPVSQSTTSDYQWDVSRNQPYIDDEWSGLNGLSSADPNSDANAPAEEWGNWVDEERASLLKSQEPIPDDQKVSDDDKEKGEGALPTGKSKKKKKKKKKQGEDNSTAQDTEELEKEIREDLPVNTSKTRPKQEKAFSLKTISTSDPAEVLVKNSQPIKTLPPATSTEPSVILSKSDSDKSSSQVPPILQETDKSKSNTKQNSVPPSQTKSETSWESPKQIKKKKKARRET
notes: Full-length, Myc-tagged
B2: no binding [1].

B3: Myc-MTDH W394D, full-length human (other)
chain: MAARSWQDELAQQAEEGSARLREMLSVGLGFLRTELGLDLGLEPKRYPGWVILVGTGALGLLLLFLLGYGWAAACAGSRKKRRSPPRKREEAAAVPAAAPDDLALLKNLRSEEQKKKNRKKLSEKPKPNGRTVEVAEGEAVRTPQSVTAKQPPEIDKKNEKSKKNKKKSKSDAKAVQNSSRHDGKEVDEGAWETKISHREKRQQRKRDKVLTDSGSLDSTIPGIENTITVTTEQLTTASFPVGSKKNKGDSHLNVQVSNFKSGKGDSTLQVSSGLNENLTVNGGGWNEKSVKLSSQISAGEEKWNSVSPASAGKRKAEPSAWSQDTGDANTNGKDWGRSWSDRSIFSGIGSTAEPVSQSTTSDYQWDVSRNQPYIDDEWSGLNGLSSADPNSDDNAPAEEWGNWVDEERASLLKSQEPIPDDQKVSDDDKEKGEGALPTGKSKKKKKKKKKQGEDNSTAQDTEELEKEIREDLPVNTSKTRPKQEKAFSLKTISTSDPAEVLVKNSQPIKTLPPATSTEPSVILSKSDSDKSSSQVPPILQETDKSKSNTKQNSVPPSQTKSETSWESPKQIKKKKKARRET
notes: Full-length, Myc-tagged; also called SPM13
B3: no binding [1].

B4: Myc-MTDH W401A, full-length human (other)
chain: MAARSWQDELAQQAEEGSARLREMLSVGLGFLRTELGLDLGLEPKRYPGWVILVGTGALGLLLLFLLGYGWAAACAGSRKKRRSPPRKREEAAAVPAAAPDDLALLKNLRSEEQKKKNRKKLSEKPKPNGRTVEVAEGEAVRTPQSVTAKQPPEIDKKNEKSKKNKKKSKSDAKAVQNSSRHDGKEVDEGAWETKISHREKRQQRKRDKVLTDSGSLDSTIPGIENTITVTTEQLTTASFPVGSKKNKGDSHLNVQVSNFKSGKGDSTLQVSSGLNENLTVNGGGWNEKSVKLSSQISAGEEKWNSVSPASAGKRKAEPSAWSQDTGDANTNGKDWGRSWSDRSIFSGIGSTAEPVSQSTTSDYQWDVSRNQPYIDDEWSGLNGLSSADPNSDWNAPAEEAGNWVDEERASLLKSQEPIPDDQKVSDDDKEKGEGALPTGKSKKKKKKKKKQGEDNSTAQDTEELEKEIREDLPVNTSKTRPKQEKAFSLKTISTSDPAEVLVKNSQPIKTLPPATSTEPSVILSKSDSDKSSSQVPPILQETDKSKSNTKQNSVPPSQTKSETSWESPKQIKKKKKARRET
notes: Full-length, Myc-tagged
B4: no binding [1].

B5: murine MTDH TPM1 (D386R, D390R, W391D) (other, mouse, UniProt Q80WJ7 1-579, looked up)
chain: MAARSWQDELAQQAEEGSARLRELLSVGLGFLRTELGLDLGLEPKRYPGWVILVGTGALGLLLLFLLGYGWAAACAGARKKRRSPPRKREEAAPPTPAPDDLAQLKNLRSEEQKKKNRKKLPEKPKPNGRTVEVPEDEVVRNPRSITAKQAPETDKKNEKSKKNKKKSKSDAKAVQNSSRHDGKEVDEGAWETKISHREKRQQRKRDKVLTDSGSLDSTIPGIENIITVTTEQLTTASFPVGSKKNKGDSHLNVQVSNFKSGKGDSTLQVSSRLNENLTVNGGGWSEKSVKLSSQLSEEKWNSVPPASAGKRKTEPSAWTQDTGDTNANGKDWGRNWSDRSIFSGIGSTAEPVSQSTTSDYQWDVSRNQPYIDDEWSGLNGLSSARPSSRDNAPAEEWGNWVDEDRASLLKSQEPISNDQKVSDDDKEKGEGALPTGKSKKKKKKKKKQGEDNSHTQDTEDLEKDTREELPVNTSKARPKQEKACSLKTMSTSDPAEVLIKNSQPVKTLPPAISAEPSITLSKGDSDNSSSQVPPMLQDTDKPKSNAKQNSVPPSQTKSETNWESPKQIKKKKKARRET
notes: also called TPM1 (murine form)
B5: no binding [2].
